Starred links: 1 amine or outer side, 2 acyl side, 3 side chain; linkers in the order of their positions; H or OH if unused. Positions of bridges follow the written chain, without caps; N, C: chain ends. *: point of attachment. C20 diacid = O=C(O)CCCCCCCCCCCCCCCCCCC(=O)*; γGlu = O=C(O)[C@H](CCC(=O)[*:2])N[*:1]
T1: human amylin 3(a) receptor (human calcitonin receptor + RAMP-3) (human, UniProt P30988 25-474; O60896 24-148)
T1 sequence (looked up) 1: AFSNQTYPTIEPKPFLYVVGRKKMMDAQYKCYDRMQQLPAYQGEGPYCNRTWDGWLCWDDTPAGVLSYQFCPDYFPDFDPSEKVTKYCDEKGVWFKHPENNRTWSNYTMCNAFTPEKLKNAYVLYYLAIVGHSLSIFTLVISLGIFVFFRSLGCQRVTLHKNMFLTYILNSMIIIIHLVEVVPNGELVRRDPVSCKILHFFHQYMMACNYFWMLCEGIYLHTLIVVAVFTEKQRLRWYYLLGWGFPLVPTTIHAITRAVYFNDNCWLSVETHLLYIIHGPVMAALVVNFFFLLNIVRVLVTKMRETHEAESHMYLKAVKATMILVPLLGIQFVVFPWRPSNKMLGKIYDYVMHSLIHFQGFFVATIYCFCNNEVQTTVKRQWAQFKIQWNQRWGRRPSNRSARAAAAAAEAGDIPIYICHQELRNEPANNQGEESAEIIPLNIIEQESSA
T1 sequence (looked up) 2: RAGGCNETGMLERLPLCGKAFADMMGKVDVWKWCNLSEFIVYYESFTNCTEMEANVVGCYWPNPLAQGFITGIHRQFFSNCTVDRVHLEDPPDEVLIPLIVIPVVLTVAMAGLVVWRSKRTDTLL

T2: human calcitonin (a) receptor (human, UniProt P30988 25-474)
T2 sequence (looked up): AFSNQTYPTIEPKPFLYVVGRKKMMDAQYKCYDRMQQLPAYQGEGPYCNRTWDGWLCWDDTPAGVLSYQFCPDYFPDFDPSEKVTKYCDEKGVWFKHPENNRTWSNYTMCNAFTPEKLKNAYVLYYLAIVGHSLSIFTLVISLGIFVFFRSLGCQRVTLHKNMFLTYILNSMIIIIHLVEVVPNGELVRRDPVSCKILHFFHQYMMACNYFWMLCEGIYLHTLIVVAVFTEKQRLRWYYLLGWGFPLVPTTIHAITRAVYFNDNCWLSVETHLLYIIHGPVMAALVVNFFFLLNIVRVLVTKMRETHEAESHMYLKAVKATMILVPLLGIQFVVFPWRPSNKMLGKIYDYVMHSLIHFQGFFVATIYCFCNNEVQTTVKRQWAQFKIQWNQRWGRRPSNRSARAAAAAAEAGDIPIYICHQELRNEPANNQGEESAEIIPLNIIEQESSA

T3: rat amylin 3(a) receptor (rat calcitonin(a) receptor + rat RAMP3) (rat, UniProt P32214 25-516; Q9JJ73 23-147)
T3 sequence (looked up) 1: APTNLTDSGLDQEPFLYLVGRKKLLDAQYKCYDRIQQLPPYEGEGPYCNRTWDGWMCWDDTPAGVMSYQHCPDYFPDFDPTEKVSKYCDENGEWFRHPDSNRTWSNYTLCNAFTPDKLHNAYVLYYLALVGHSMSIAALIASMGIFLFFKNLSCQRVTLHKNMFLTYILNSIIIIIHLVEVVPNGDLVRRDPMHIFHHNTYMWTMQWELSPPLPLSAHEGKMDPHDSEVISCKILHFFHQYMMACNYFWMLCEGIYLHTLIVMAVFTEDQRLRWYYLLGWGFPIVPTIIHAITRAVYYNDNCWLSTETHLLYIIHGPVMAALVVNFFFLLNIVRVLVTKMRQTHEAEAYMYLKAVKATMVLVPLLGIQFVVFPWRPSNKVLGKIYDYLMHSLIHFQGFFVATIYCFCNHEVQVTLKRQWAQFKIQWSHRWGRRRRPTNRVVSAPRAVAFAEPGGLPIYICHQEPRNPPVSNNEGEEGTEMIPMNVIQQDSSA
T3 sequence (looked up) 2: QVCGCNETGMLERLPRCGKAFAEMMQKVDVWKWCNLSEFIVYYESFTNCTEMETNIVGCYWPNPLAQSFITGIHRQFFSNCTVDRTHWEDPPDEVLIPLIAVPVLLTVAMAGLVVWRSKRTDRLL

T4: rat calcitonin (a) receptor (rat, UniProt P32214 25-516)
T4 sequence (looked up): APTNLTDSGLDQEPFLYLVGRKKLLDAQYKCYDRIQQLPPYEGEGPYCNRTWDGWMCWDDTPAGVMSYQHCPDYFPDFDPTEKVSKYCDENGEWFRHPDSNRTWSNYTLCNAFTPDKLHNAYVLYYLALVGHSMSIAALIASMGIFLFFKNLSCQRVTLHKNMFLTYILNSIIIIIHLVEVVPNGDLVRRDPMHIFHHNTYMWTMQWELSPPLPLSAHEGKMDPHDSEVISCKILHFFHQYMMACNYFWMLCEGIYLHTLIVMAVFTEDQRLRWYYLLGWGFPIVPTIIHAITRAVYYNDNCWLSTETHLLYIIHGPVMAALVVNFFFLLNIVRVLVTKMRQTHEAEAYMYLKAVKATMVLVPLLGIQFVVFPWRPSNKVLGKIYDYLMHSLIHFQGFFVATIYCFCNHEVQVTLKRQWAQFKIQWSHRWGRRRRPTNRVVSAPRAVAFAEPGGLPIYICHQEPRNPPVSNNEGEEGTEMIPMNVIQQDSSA

B1: N-alpha-[(S)-4-Carboxy-4-(19-carboxynonadecanoylamino)butyryl]-Glu-[Glu14,His17]-pramlintide (peptide)
peptide: {C20 diacid-γGlu}-EKCNTATCATQRLAEFLHHSSNNFGPILPPTNVGSNTY-NH2
modifications: disulfide 3-8; not fully specified; printed as N-alpha-[(S)-4-Carboxy-4-(19-carboxynonadecanoylamino)butyryl]-Glu-[Glu14,His17]-pramlintide
B2: N-alpha-[(S)-4-Carboxy-4-(19-carboxynonadecanoylamino)butyryl]-[Glu14,His17]-pramlintide (peptide)
peptide: {C20 diacid-γGlu}-KCNTATCATQRLAEFLHHSSNNFGPILPPTNVGSNTY-NH2
modifications: disulfide 2-7
SMILES: CC[C@H](C)[C@H](NC(=O)[C@@H]1CCCN1C(=O)CNC(=O)[C@H](Cc1ccccc1)NC(=O)[C@H](CC(N)=O)NC(=O)[C@H](CC(N)=O)NC(=O)[C@H](CO)NC(=O)[C@H](CO)NC(=O)[C@H](Cc1c[nH]cn1)NC(=O)[C@H](Cc1c[nH]cn1)NC(=O)[C@H](CC(C)C)NC(=O)[C@H](Cc1ccccc1)NC(=O)[C@H](CCC(=O)O)NC(=O)[C@H](C)NC(=O)[C@H](CC(C)C)NC(=O)[C@H](CCCNC(=N)N)NC(=O)[C@H](CCC(N)=O)NC(=O)[C@@H](NC(=O)[C@H](C)NC(=O)[C@@H]1CSSC[C@H](NC(=O)[C@H](CCCCN)NC(=O)CC[C@H](NC(=O)CCCCCCCCCCCCCCCCCCC(=O)O)C(=O)O)C(=O)N[C@@H](CC(N)=O)C(=O)N[C@@H]([C@@H](C)O)C(=O)N[C@@H](C)C(=O)N[C@@H]([C@@H](C)O)C(=O)N1)[C@@H](C)O)C(=O)N[C@@H](CC(C)C)C(=O)N1CCC[C@H]1C(=O)N1CCC[C@H]1C(=O)N[C@H](C(=O)N[C@@H](CC(N)=O)C(=O)N[C@H](C(=O)NCC(=O)N[C@@H](CO)C(=O)N[C@@H](CC(N)=O)C(=O)N[C@H](C(=O)N[C@@H](Cc1ccc(O)cc1)C(N)=O)[C@@H](C)O)C(C)C)[C@@H](C)O
B3: N-alpha-[(S)-4-Carboxy-4-(19-carboxynonadecanoylamino)butyryl]-His-His-[His1,Glu14,His17,His35]-pramlintide (peptide)
peptide: {C20 diacid-γGlu}-HHHCNTATCATQRLAEFLHHSSNNFGPILPPTNVGSHTY-NH2
modifications: disulfide 4-9
SMILES: CC[C@H](C)[C@H](NC(=O)[C@@H]1CCCN1C(=O)CNC(=O)[C@H](Cc1ccccc1)NC(=O)[C@H](CC(N)=O)NC(=O)[C@H](CC(N)=O)NC(=O)[C@H](CO)NC(=O)[C@H](CO)NC(=O)[C@H](Cc1c[nH]cn1)NC(=O)[C@H](Cc1c[nH]cn1)NC(=O)[C@H](CC(C)C)NC(=O)[C@H](Cc1ccccc1)NC(=O)[C@H](CCC(=O)O)NC(=O)[C@H](C)NC(=O)[C@H](CC(C)C)NC(=O)[C@H](CCCNC(=N)N)NC(=O)[C@H](CCC(N)=O)NC(=O)[C@@H](NC(=O)[C@H](C)NC(=O)[C@@H]1CSSC[C@H](NC(=O)[C@H](Cc2c[nH]cn2)NC(=O)[C@H](Cc2c[nH]cn2)NC(=O)[C@H](Cc2c[nH]cn2)NC(=O)CC[C@H](NC(=O)CCCCCCCCCCCCCCCCCCC(=O)O)C(=O)O)C(=O)N[C@@H](CC(N)=O)C(=O)N[C@@H]([C@@H](C)O)C(=O)N[C@@H](C)C(=O)N[C@@H]([C@@H](C)O)C(=O)N1)[C@@H](C)O)C(=O)N[C@@H](CC(C)C)C(=O)N1CCC[C@H]1C(=O)N1CCC[C@H]1C(=O)N[C@H](C(=O)N[C@@H](CC(N)=O)C(=O)N[C@H](C(=O)NCC(=O)N[C@@H](CO)C(=O)N[C@@H](Cc1c[nH]cn1)C(=O)N[C@H](C(=O)N[C@@H](Cc1ccc(O)cc1)C(N)=O)[C@@H](C)O)C(C)C)[C@@H](C)O

How the values were obtained:
Experiment in all cases: cell-based or functional assay
[1] = molecular target: T1, human amylin 3(a) receptor (human …)
[2] = molecular target: T2, human calcitonin (a) receptor
[3] = molecular target: T3, rat amylin 3(a) receptor (rat …)
[4] = molecular target: T4, rat calcitonin (a) receptor

Row | Binder | Amylin receptor human EC50 [1] | CTa receptor human EC50 [2] | Amylin receptor rat EC50 [3] | CTa receptor rat EC50 [4]
1 | B1 | 0.13 nM | 0.214 nM | 0.476 nM | 1.39 nM
2 | B2 | 0.121 nM | 0.107 nM | 0.188 nM | 0.539 nM
3 | B3 | 0.164 nM | 0.155 nM | 0.2 nM | 1.31 nM

From patent US20130005646A1 (Novo Nordisk, published 2013)
